The text below walks through data of patent US5356875A, “Anti-thrombin polypeptides and pharmaceutical compositions thereof” (Farmitalia Carlo ERBA S.r.l., priority 1991, dated 1994).

For data set [1] the following is noted: cited from earlier work.
Data set [2] deals with T1, thrombin (Homo sapiens, UniProt P00734). Briefly: chromogenic assay: inhibition of thrombin cleavage of synthetic substrate S-2238. Type of data set: biochemical.
Data set [3] deals with T1, thrombin. Kind of data set: anti-thrombin activity of P2 released from fusion protein (test not specified). Type of data set: biochemical. The following applies: P2 released by CNBr cleavage of polyhedrin fusion protein from S. frugiperda cytoplasm. The protocol: The recombinant baculovirus was obtained as described in Example 5. Infection of S. frugiperda cells was carried out according to standard procedures^20. Cultivation of infected insect cells lead to the cytoplasmic accumulation of the fusion protein. This hybrid protein was the source of recombinant protein P2. Several methods are available from the literature which can be used to cleave the hybrid with CNBr^22,23.The application of the method of Olson et al^23, has allowed us to obtain the correct polypeptidic sequence of P2.

For the molecule hirudin, in data set [1] (animal studies), the “efficacy in preventing venous thrombosis, vascular shunt occlusion and thrombin-induced disseminated intravascular coagulation” value was “demonstrated efficacy”. In data set [1] (in vivo), the antigenicity entry was “little or no antigenicity”, the “clearance time from circulation” value was “very short clearance time” and the toxicity result is on record as “low toxicity”.

B1: P2: 64-residue anti-thrombin polypeptide from Hirudinaria manillensis, HPLC peak P2, sequence (ii); also produced recombinantly in E. coli and insect cells (protein)
chain: VSYTDCTESGQNYCLCVGSNVCGEGKNCQLSSSGNQCVHGEGTPKPKSQTEGDFEEIPDEDILN
As to B1, in the data set with thrombin [2] (E. coli type B strains with plasmid pOMP-P2 (Plpp/lac promoter)), the “activity of P2” value was “active”. For the same molecule, the anti-thrombin activity entry is given as “presence of an anti-thrombin activity” in the data set with thrombin [2] (culture supernatants of S. frugiperda cells infected with recombinant baculovirus, spinner culture or monolayers); “presence of anti-thrombin activity” in the data set with thrombin [2] (periplasmic fraction of E. coli type B NCTC 10537 transformed with pFC-P2); “displayed anti-thrombin activity” in the data set with thrombin [3].
